From the DeepSol protein solubility set

Experiment: soluble on expression in E. coli; label from the status in PepcDB or PDB records

Row | Sequence | soluble on expression in E. coli
1 | MRVLVLCTHNSARSQMAEAWLKHFARELGVDLEVHSAGTEKAFVKEEAKRVMAEVGLDLSGHFSKTLLEVPDPWDFGLVLTVCDQAKEACPAYPARTERRHVSFPDPTGKPLEEWRKVRDALGRMARFLVEALKEGRLPSDEELRQAARL | soluble
2 | MRFLFSLIGLVYSSLIKLAVPFNPKARMMVRGRWKVWRQLREGIVPGGRYIWFHAASLGEFEQGRPMIERIRSEYPDYRIVLTFFSPSGYEVRKNYEGADVIVYLPADRLPRVRKFLDLVKPEMAIFIKYDFWPCFLTELERRQIPTYLVSSIFRPSQLFFRWYGGAYKRLLHCFTHIFVQDKASRLLLEKHGIDHVSVAGDTRFDRVISVYEARKSLPLIERFAASVPEDGLVIVGGSSWPPDEEILVRYFNRNPKIKLILAPHEIDKEHLLQIISHIRRPFIRLSEATESDIARQDCLIVDSFGLLSSIYRYGQVAFIGGGFGKGIHNTPEAAVYGIPVIFGPRYEKFKEARELIDVGGGFSVSSAEEFGNLIKRIQTDKAYRDAASRAAADYIRSNAGATGYIVHRIMKLEHHHHHH | soluble
3 | SFDRALKPFLKSCHFQTLRDPVDQCVSYHLRSVTEKFPEVHMEVIADYEVHPNRRPKILAQTAAHVAGAAYYYQRQDVDADPWGTQHIAGVCIHPRFGGWFAIRGVMLLPGIEVPNLPPRKPPDCVPTRAGRITLLEGFNFHWRDWTYRDAVTPEERYSEEQKIYFSTPPAQRLALLGLAQPSEHPSTTSELPLSLLTKPQNSRRARSWLSPSVSPPVSPGP | soluble
4 | AIAEAEGMLPPQSLSAKFEGSFAYLTVRDRLPTILTKVVDTLHRNKDNFYKEYGEEGTEAEKRAISFLSRLRNELQTDKPVLALTDNAEDTQAWNEYMERQQDLMENGQLVSWFKSPWLYVECYMYRRIQEALYMNPPMHNFDPFKEGKTQSYFESQQAIKYLCTYLQELITNMENMTEIQLRENFLKLIQVSLWGNKCDLSISAGQDNSQKLSPIDSLPDLQRFILVDDSSMVWSTLVASQGSRSSGMKHARVDIILDNAGFELVTDLVLADFLISSGLAKQIRFHGKSIPWFVSDVTKQDFEWTIKQTMAANHKWMSASGVQWKHFMKEGTWSYHDHPFWTLPHEFCDMTVDAANLYSTLQTSDLILFKGDLNYRKLTGDRKWEHTVRFDQALRGFQPAPLCSLRTLKADVQVGLQAGHAEKLSTQDPDWMTNGKYAVVQFSSPHREQ | soluble
5 | MSLKLARINLSRDDIHKRLGGGIPYGSIILVEGEESTGKSIIAQRLAYGFLQTAHSVTYTSTQLTTLEFVKQMMSLNYNINKKLLSGTLLYIPVYPLISDNTQKDDFIKKIMETRAFYEKDIVIFDSLSSLIVNDASDIKVNDLMAFFKRIASMNKVIIYTINPKELPESILTLLRSSATMVLKTEIYTFGGNIKNLVKIEKYNLAQGPFQKLMVFRVEPKLGIAVEISSVAEGHHHHHH | soluble
6 | MAHHHHHHMGSTGRKAVDEINHWIAYIDCALSHPHPLPKGKHVFRSDLSTVPEVRDIYDCLYKLYAEESASASFREPVNALELGVFNYYEVVTEPMSLRTVLDRIAEGGHYSQASQVLADVEKIWSNCEKYNGADSALVKEAKKCQGILTRLRERLAEEQPAPNAELDKIISAFESADESVLGELEAYFRREDPSLIISNGDVDLTALRVKHLKAMKAILERAMNGGGGRG | not soluble
7 | MALNGAEVDDFSWEPPTEAETKVLQARRERQDRISRLMGDYLLRGYRMLGETCADCGTILLQDKQRKIYCVACQELDSDVDKDNPALNAQAALSQAREHQLASASELPLGSRPAPQPPVPRPEHCEGAAAGLKAAQGPPAPAVPPNTDVMACTQTALLQKLTWASAELGSSTSLETSIQLCGLIRACAEALRSLQQLQHLEHHHHHH | not soluble
8 | MSLSANDVNKDHLQTSIKQCENNGNGQEEGLKNPSKSGTTFYVPWEGSENFLSCQSKNGTPIMMVAYQTVLRDPLPGEEENVHLAARLLAGTVVKPGEVFSQNNKIGPYVIARGFKKGPTYIGTKLTTTIGGGVCKMASTLYNVAILSNLPVVERHAHSMPVPYVPYGQDATVSYGNKDLKFKNDTSSPIMIWAQGVDNILYVAFYSSTKPPEVEWHHEMLKLIKADKVYKMSSTLPKGREKLLMEGMDGAIVKSWVTVKNPDGTVIKRDLRKSYYNPMPHVYEKGKEGHHHHHH | soluble
9 | MHYFSEKPTTKSDVKIVEDILRGKKLKFKTDSGVFSYGKVDKGTKILVENVVVDKDDDILDLGCGYGVIGIALADEVKSTTMADINRRAIKLAKENIKLNNLDNYDIRVVHSDLYENVKDRKYNKIITNPPIRAGKEVLHRIIEEGKELLKDNGEIWVVIQTKQGAKSLAKYMKDVFGNVETVTIKGGYRVLKSKKL | soluble
10 | SNAMSDSDAMTDPNAVSYSNAIVVLCTAPDEASAQNLAAQVLGEKLAACVTLLPGATSLYYWEGKLEQEYEVQLLFKSNTDHQQALLTYIKQHHPYQTPELLVLPVRDGDKDYLSWLNASLL | soluble
11 | MNPKEQSSYLYEQYDDALGEQLKPITSQYVLQDLNKNSSKQKAQVVQKVDSEYVLRDLRNQADQNQNFSRDAPNRPFLTGTPVNAKEIRSQIESLDNAIVIPQIINGKVFFTTHGDADARTAVEGSVSNPNLNETNVGASKPEGVDLSKMKFTFAQLVALLGPSTCQRLEREFVKKNRLSDAEMSQLRTARESISELNLATGRSTDTLRTAQSVEPNLLSIRTANSLEPNLLSVYSARSPGVFTKKEGMLTAQSPEPNLLSVRTANSLEPNLLSVKPAKELTTISNLKAQSPGLLTAQSAEPNLLSTRTARSSSNTSLIDTESKDVQTCIEIQSPTTGVLTAQSIATPSGSCQSVFTAKEIESIRSSQDVLTAVEILTDMSRSSQDVRTALEISE | not soluble
12 | MMKNFVCTTCGVQYAASVEEPVSCHICDEERQYVNPKGQSWTTLENLQTDDTYKNEIIKEENGLYSITTKPGFAIGQTAFVVKTESYRLLWDCITYLDETTITKIKELGGLDAIALSHPHYYSTQVEWAETFDVPIYIHEDDKEWVMRPSSRIIYWSGESLQLADGITVHRLGGHFSGGSVLHWEEGNDGKGILLTGDIIQVVADERWVSFMYSYPNLIPLPARKVEEMVNRVKPLQFNRLYNAFHRVVKENANEAVERSAERYIKAIEGKLFHT | not soluble
13 | MGSSHHHHHHSSGLVPRGSMGFKVKLEKRRNAINTCLCIGLDPDEKDIENFMKNEKENNYNNIKKNLKEKYINNVSIKKDILLKAPDNIIREEKSEEFFYFFNHFCFYIINETNKYALTFKMNFAFYIPYGSVGIDVLKNVFDYLYELNIPTILDMKINDIGNTVKNYRKFIFEYLKSDSCTVNIYMGTNMLKDICYDEEKNKYYSAFVLVKTTNPDSAIFQKNLSLDNKQAYVIMAQEALNMSSYLNLEQNNEFIGFVVGANSYDEMNYIRTYFPNCYILSPGIGAQNGDLHKTLTNGYHKSYEKILINIGRAITKNPYPQKAAQMYYDQINAILKQNMES | soluble
14 | MSLNTRRLLDLSVTLDNNPYTDPPPLLPKIDYMDHQQGWPEMAAMFPGLRKEDLPGDESWAAERLQITTHSGTHMDAPWHYASTTDGGKPAFGIDELPLEWCLQPGVKLDFRHLPDGHVVTAAQVEAELARIGHELQPLDIVLVNTRAGSLFGQPGYLEAGVGMGREATLYLLERGVRVVGTDAWSWDAPFKFTRERFSETGDASIIWEGHKAGRDIGYGQMEKLANLEQLPADGFLVSCFPYKIRHASAGFVRAVAIFDLEHHHHHH | soluble
15 | MAHHHHHHMEYMHHIQGVVVLNDSGNRVFVKYYLNEDMKARGVLTTLEKQRALERVIYDAVSAPKRNWAASKDGDIVLHDVHSILFHVWGSITFAIVGDIKENEMVMHTVLRCIVDALQRILKTQDITHKGILEKYDALVLAVDEVIDDGIVLETSAQNVADDVAPFMADAETDTARSALSKVNEYLKENL | soluble
16 | MAFVLDASTAVAWCFDEHHPAADRTLELAKVSEPRAPAILWFELRNAALMGIRRGRVKAEAADGVLARIERIRISIAPLPPAADPIFALAQRHRLTFYDAAYLELAQRERIGLATLDAALVGA | not soluble
17 | GMRLPLNQRVAILLHEGTTGTIGKTGLALLRYSEAPIVAVIDRNCAGQSLREITGIYRYVPIVKSVEAALEYKPQVLVIGIAPKGGGIPDDYWIELKTALQAGMSLVNGLHTPLANIPDLNALLQPGQLIWDVRKEPANLDVASGAARTLPCRRVLTVGTDMAIGKMSTSLELHWAAKLRGWRSKFLATGQTGVMLEGDGVALDAVRVDFAAGAVEQMVMRYGKNYDILHIEGQGSLLHPGSTATLPLIRGSQPTQLVLVHRAGQTHNGNNPHVPIPPLPEVIRLYETVASGGGAFGTVPVVGIALNTAHLDEYAAKEAIAHTIAETGLPCTDVVRFGADVLLDAVMQN | soluble
18 | KQQKDGSWLMDALIPLNELKYKLGLTTIEGEESEGFQTLNGFLTWWLGRLPHAGELVDYEGWQFEVLNVKHHRIVQVKVSRETESETTTDTNDGDANP | not soluble
19 | MQTFNRERLEFALDKRGCTQTKLAELLGITARQVRNYVKDEQIPDLNELANLLEFPVHFFTNDERLPELKSQAVSFRARSRTSKRLEKQALNHSITAFLLNDWLETEFTLSQAVLPDFSDISPEEAAQELRLEWGLGNEPIPNMITLLEVKGVRVFSLSLDTKDIDAFCTWYENHPFVFLNTQKSAERSRFDAAHELGHLIRDKYSMEHSKNSEITEDEPRDIIEKEANAFASAFLMPEAALRLYRHVPITIENLLKIKRRFGVSLVALAYRMHKLGMITDRMYIHNLCPLFAKKKYRTIEPEPMEREISSALRKMLTILKNDGIGIEQIAENLNVSPKDVADLTFGLVERDLNRYRKLRLVK | not soluble
20 | MHFKRVVKWGLNMYQNQRIKDKINILGVNFDNTTMLEMLENIKQFISSNTDDNLFIVTANPEIVDYATEHELYRNLINQADYVVPDGTGIVKASKRLKQPLKRRVPGIELLEECLKIAHVSHQRVYLLGSKNEIVETAEKKLQSQYPNIHFAHHHGYIHLEDETVIKRITSFNPDYIFVGMGFPKQEQWIQKHKDKFKHTVMMGVGGSFEVFSGSKKRAPQIFRKLNIEWVYRVLIDWKRIGRMISIPKFMLKVAIQKYKMKSK | not soluble
21 | MGSDKIHHHHHHGCSYGVGDDCLPPEEPVPIRMAIAEGKLSTRAPVTTIDASNLSNVGIYAVSEGSIAGQYPWTSTPFALNLVPSGISGSQLSFNPKLYYPLGGKRVIFYSYYPRTTATSGSNYITAPGNGVAPAYHFTLTGTEDIMYAAGTPTGSTSTMPVSLTFNHVLTQLQLNTSLLGALSSIKLLGVYNKGMLDIGNGNVTYDSSTTDITLTVPLLGSVTNTVMVPAGVASYKVEVVLLLSLLKRTYLVKPTSGNFQPGVIYTISL | not soluble
22 | SGSRDHLFKVLVVGDAAVGKTSLVQRYSQDSFSKHYKSTVGVDFALKVLQWSDYEIVRLQLWDIAGQERFTSMTRLYYRDASACVIMFDVTNATTFSNSQRWKQDLDSKLTLPNGEPVPCLLLANKCDLSPWAVSRDQIDRFSKENGFTGWTETSVKENKNINEAMRVLIEKMMRNSTEDIMSLSTQGDYINLQTKSSSWSCC | soluble
23 | SLENVLASHSKMQGALEKVQIELGRRDSEIAGLKKERDLNQQRVQKLEAEVDQWQARMLVMEDQHNSEIESLQKALGVAREDNRKLAMSLEQALQTNNHLQTKLDHIQEQLESKELERQNLETFKDRMTEESKVEAELHAERIEALRKQFQTERETTKKVAQREVAELKKALDEANFRSVEVSRTNRELRQKLAELEKILESNKEKIKNQKTQIKLHLSAKANNAQNIERMKVVWETSSHFLDTL | soluble
24 | MGHHHHHHSHMEKCSVGGLELTEQTPALLGNMAMATSLMDIGDSFGHPACPLVSRSRNSPVEDDDDDDDVVFIESIQPPSISAPAIADQRNFIFASSKNEKPQGNYSVIPPSSRDLASQKGNISETIVIDDEEDIETNGGAEKKSSCFIEWGLPGTKNKTNDLDFSTSSLSRSKVNAGMGNSGITTELTLKYIITNVTTLETGISSVNAGQDVNIIITYKTSL | not soluble
